The results in this text go back to patent US20220016257A1 (Daiichi Sankyo, published 2022).

Assay [1] deals with T1, human CDH6 (full-length, on cells) (human, UniProt P55285 54-790).
T1 construct: also called hCDH6; full-length hCDH6
T1 sequence: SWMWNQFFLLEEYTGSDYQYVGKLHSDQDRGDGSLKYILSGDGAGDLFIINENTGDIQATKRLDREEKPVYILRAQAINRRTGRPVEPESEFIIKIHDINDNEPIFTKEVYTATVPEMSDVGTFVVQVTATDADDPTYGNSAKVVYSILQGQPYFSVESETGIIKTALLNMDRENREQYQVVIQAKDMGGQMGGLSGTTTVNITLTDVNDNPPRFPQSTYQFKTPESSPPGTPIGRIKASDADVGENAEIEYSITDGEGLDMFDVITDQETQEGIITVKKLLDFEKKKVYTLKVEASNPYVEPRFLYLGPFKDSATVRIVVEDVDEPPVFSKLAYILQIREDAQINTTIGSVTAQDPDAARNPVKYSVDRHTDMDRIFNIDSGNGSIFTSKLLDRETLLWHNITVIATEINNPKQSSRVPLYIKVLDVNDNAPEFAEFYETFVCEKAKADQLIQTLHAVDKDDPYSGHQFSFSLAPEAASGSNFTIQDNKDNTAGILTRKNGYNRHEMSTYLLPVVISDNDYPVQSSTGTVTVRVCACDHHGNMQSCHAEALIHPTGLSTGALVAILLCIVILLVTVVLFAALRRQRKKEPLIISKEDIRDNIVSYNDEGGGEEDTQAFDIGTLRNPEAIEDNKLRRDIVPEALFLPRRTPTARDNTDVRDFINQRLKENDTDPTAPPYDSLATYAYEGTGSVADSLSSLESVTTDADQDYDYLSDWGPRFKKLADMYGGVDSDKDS
Description: competition flow cytometry on 786-O/hCDH6 cells, unlabeled antibody varied, competitor Alexa488-labeled H01L02 at 5 nM [lower panel]. The method, then:
The cell suspension of the 786-O/hCDH6 stably expressing cell line produced in 6)-2-2-1 was centrifuged, and the supernatant was then removed. Thereafter, the cells were suspended by the addition of labeled NOV0712 or labeled H01L02 (final concentration: 5 nM) and, further, the addition of each of the 4 humanized hG019 antibodies (clone Nos: H01L02, H02L02, H02L03 and H04L02), which had been prepared in Example 5)-5-3, or the anti-CDH6 antibody NOV0712, which had been prepared in Reference Example 1, or human IgG1 (Calbiochem) as a negative control (final concentration: as shown in the abscissa of FIG. 7). The cells were left standing at 4° C. for 1 hour. Thereafter, the cells were washed twice with PBS supplemented with 5% FBS, followed by detection using a flow cytometer (Canto II; BD Biosciences). The data was analyzed using FlowJo (TreeStar, Inc.). The abscissa depicts the final concentration of the added unlabeled antibody, and the ordinate depicts the amount of the antibody bound based on mean fluorescence intensity. When unlabeled NOV0712 is added to cells supplemented with labeled NOV0712, the amount of the labeled antibody bound is decreased by replacement with the unlabeled antibody in an addition concentration-dependent manner because they compete with each other for binding to the same epitope. […] Likewise, when each of the 4 unlabeled humanized hG019 antibodies is added to cells supplemented with labeled H01L02, the amount of the labeled antibody bound is decreased by replacement with the unlabeled antibody in an addition concentration-dependent manner because they compete with each other for binding to the same epitope.
For orientation: In flow cytometry, cells or beads pass a laser one at a time.

The target in assay [2] is T2, EC3-deleted human CDH6 (EC3 deletion mutant, on cells) (human, UniProt P55285 54-790).
T2 construct: Full-length human CDH6 lacking EC3; Cloned in p3xFLAG-CMV-9; also called EC3-deleted hCDH6
T2 sequence: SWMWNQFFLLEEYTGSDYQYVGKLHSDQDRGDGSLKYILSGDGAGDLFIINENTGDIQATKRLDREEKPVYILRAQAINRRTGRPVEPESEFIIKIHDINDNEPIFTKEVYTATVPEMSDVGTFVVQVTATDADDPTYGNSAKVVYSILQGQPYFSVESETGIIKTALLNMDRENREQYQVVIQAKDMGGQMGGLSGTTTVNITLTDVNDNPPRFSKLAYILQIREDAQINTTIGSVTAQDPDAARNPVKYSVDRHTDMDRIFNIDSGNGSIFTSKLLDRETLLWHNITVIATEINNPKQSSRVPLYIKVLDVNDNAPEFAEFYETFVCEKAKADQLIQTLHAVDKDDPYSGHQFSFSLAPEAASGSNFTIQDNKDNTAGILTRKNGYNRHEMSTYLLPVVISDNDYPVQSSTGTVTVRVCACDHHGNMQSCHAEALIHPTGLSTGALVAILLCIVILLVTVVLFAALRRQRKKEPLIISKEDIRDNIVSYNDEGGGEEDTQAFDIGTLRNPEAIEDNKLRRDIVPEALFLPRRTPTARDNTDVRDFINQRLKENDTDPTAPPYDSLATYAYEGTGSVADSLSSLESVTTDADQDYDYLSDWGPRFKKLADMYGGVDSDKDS
Description: flow cytometry, 293α cells transiently expressing EC3-deleted hCDH6 (open) against untransfected cells (shaded), APC anti-human IgG F(ab')2. The method, then:
The cells were cultured overnight under conditions of 37° C. and 5% CO₂, and thereafter, a cell suspension was prepared. […] Thereafter, the cells were suspended by the addition of each of the 4 humanized hG019 antibodies (clone Nos: H01L02, H02L02, H02L03 and H04L02), which had been prepared in Example 5)-5-3, or the anti-CDH6 antibody NOV0712, which had been prepared in Reference Example 1, or human IgG1 (Calbiochem) as a negative control. The cells were left standing at 4° C. for 1 hour. The cells were washed twice with PBS supplemented with 5% FBS, and then suspended by the addition of APC-anti-human IgG goat F(ab′)2 (Jackson ImmunoResearch Laboratories, Inc.) that had been 500-fold diluted with PBS supplemented with 5% FBS. The cells were left standing at 4° C. for 1 hour. The cells were washed twice with PBS supplemented with 5% FBS, followed by detection using a flow cytometer (Canto II; BD Biosciences). The data was analyzed using FlowJo (TreeStar, Inc.). In the histograms of FIGS. 5-1 to 5-6, the abscissa depicts APC fluorescence intensity indicating the amount of the antibody bound, and the ordinate depicts cell count. […] Fluorescence intensity is enhanced when the antibody binds to full-length hCDH6 or each EC domain deletion mutant on the cell surface. The human IgG1 control binds to none of the transfected cells.

B1: humanized anti-CDH6 antibody H02L02 (antibody, human IgG1, kappa, V domains shown)
VH: EVQLVQSGAEVKKPGASVKVSCKASGYTFTRNFMHWVRQAPGQGLEWMGWIYPGDGETEYNQKFQGRVTITADRSTSTAYMELSSLRSEDTAVYFCARGVYGGFAGGYFDFWGQGTLVTVSS
VL: DIQMTQSPSSLSASVGDRVTITCKASQNIYKNLAWYQQKPGKAPKLLIYDANTLQTGVPSRFSGSGSGSDFTLTISSLQPEDFATYFCQQYYSGWAFGQGTKVEIKR
notes: hH02 heavy chain and hL02 light chain, human IgG1/kappa; also called H02L02 antibody; humanized hG019
With B1, the “IC50 (read off the curve)” value in assay [1] is ~3 nM. In assay [2], the binding result was “no binding (tested: not given)”.

B2: humanized anti-CDH6 antibody H04L02 (antibody, human IgG1, kappa, V domains shown)
VH: QVQLVQSGAEVKKPGASVKVSCKASGYTFTRNFMHWIRQAPGQGLEWMGWIYPGDGETEYAQKFQGRVTLTADRSTSTAYMELSSLRSEDTAVYYCARGVYGGFAGGYFDFWGQGTLVTVSS
VL: DIQMTQSPSSLSASVGDRVTITCKASQNIYKNLAWYQQKPGKAPKLLIYDANTLQTGVPSRFSGSGSGSDFTLTISSLQPEDFATYFCQQYYSGWAFGQGTKVEIKR
notes: hH04 heavy chain and hL02 light chain, human IgG1/kappa; also called H04L02 antibody; humanized hG019
For the molecule B2, the “IC50 (read off the curve)” value in assay [1] was ~10 nM. Also, the binding result in assay [2] is given as “no binding (tested: not given)”.

B3: humanized anti-CDH6 antibody H02L03 (antibody, human IgG1, kappa, V domains shown)
VH: EVQLVQSGAEVKKPGASVKVSCKASGYTFTRNFMHWVRQAPGQGLEWMGWIYPGDGETEYNQKFQGRVTITADRSTSTAYMELSSLRSEDTAVYFCARGVYGGFAGGYFDFWGQGTLVTVSS
VL: DIQMTQSPSSLSASVGDRVTITCKASQNIYKNLAWYQQKLGEGPKLLIYDANTLQTGVPSRFSGSGSGTDFTLTISSLQPEDFATYYCQQYYSGWAFGQGTKVEIKR
notes: hH02 heavy chain and hL03 light chain, human IgG1/kappa; also called H02L03 antibody; humanized hG019
Consider B3, for which the “IC50 (read off the curve)” value in assay [1] was ~10 nM. Further, the binding result in assay [2] is “no binding (tested: not given)”.

B4: humanized anti-CDH6 antibody H01L02 (antibody, human IgG1, kappa)
heavy: not shown
light: DIQMTQSPSSLSASVGDRVTITCKASQNIYKNLAWYQQKPGKAPKLLIYDANTLQTGVPSRFSGSGSGSDFTLTISSLQPEDFATYFCQQYYSGWAFGQGTKVEIKRTVAAPSVFIFPPSDEQLKSGTASVVCLLNNFYPREAKVQWKVDNALQSGNSQESVTEQDSKDSTYSLSSTLTLSKADYEKHKVYACEVTHQGLSSPVTKSFNRGEC
notes: hH01 heavy chain and hL02 light chain, human IgG1/kappa; also called H01L02 antibody; humanized hG019
Regarding B4, the “IC50 (read off the curve)” value in assay [1] is ~5 nM. The binding result in assay [2] is reported as “no binding (tested: not given)”.
